Test results from article PMC8713289.

Tests used:
[1] = target: Interferon alpha-2a (human) (UniProt P01563); assay: AUC; sedimentation velocity, 50000 rpm, histidine pH 7.5, 0 or 140 mM NaCl, 0.8, 0.4 and 0.2 mg/mL (A280 = 1, 0.5, 0.25); dimers and larger oligomers in concentration-dependent equilibrium
[2] = target: Interferon alpha-2a (human) (UniProt P01563); assay: AUC; sedimentation velocity, 50000 rpm, histidine pH 5, 0 or 140 mM NaCl, 0.8, 0.4 and 0.2 mg/mL (A280 = 1, 0.5, 0.25); monomer with a dimer in fast equilibrium with higher oligomers

stoichiometry N [1]: 2
stoichiometry N [2]: > 2 >=
Substance: Interferon alpha-2a (from UniProt P01563 24-188) (natural protein)
